For data set [1], the target named is Staphylococcus aureus O-acetyl-L-serine sulfhydrylase (CysK) (S. aureus) (UniProt P63871). In words: SPR.
The data set “crystal structure” concerns the molecule itself. The data set can be described thus: crystal structure.

With MFYI [CymR 4], in data set [1], the dissociation constant Kd worked out at 4.1 µM.

B1: Staphylococcus aureus O-acetyl-L-serine sulfhydrylase (CysK) (enzyme, S. aureus, UniProt P63871 1-310, looked up)
chain: MAQKPVDNITQIIGGTPVVKLRNVVDDNAADVYVKLEYQNPGGSVKDRIALAMIEKAEREGKIKPGDTIVEPTSGNTGIGLAFVCAAKGYKAVFTMPETMSQERRNLLKAYGAELVLTPGSEAMKGAIKKAKELKEEHGYFEPQQFENPANPEVHELTTGPELLQQFEGKTIDAFLAGVGTGGTLSGVGKVLKKEYPNIEIVAIEPEASPVLSGGEPGPHKLQGLGAGFIPGTLNTEIYDSIIKVGNDTAMEMSRRVAKEEGILAGISSGAAIYAAIQKAKELGKGKTVVTVLPSNGERYLSTPLYSFDD
modifications: PLP cofactor in a Schiff base linkage with the ε-amino group of K46
Consider B1, for which, in the data set “crystal structure”, the “stoichiometry N” value came to 2.

(Values after doi:10.1101/2024.09.19.614015 (bioRxiv, 2024).)
